Source: PMC12491500

Target: His-tagged SA2107 labelled with ATTO 488 (SA2107_(488)) (Staphylococcus aureus)
Test: flow-induced dispersion analysis (FIDA); PreMix method; 20 nM SA2107_(488) as indicator, preincubated 10 min with 0-2 µM unlabelled ComK1 or ComK2 as analyte; PBS + Tween 0.1%; 25 °C; change of the apparent hydrodynamic radius; three independent experiments

## His6-tagged ComK2 (recombinant, purified) (natural protein)
  Kd: 0.42 µM
